From paper PMC2199960

Experiments:
[1] = molecular target: collagen I from rat tail (rat) (UniProt P02454); assay: co-sedimentation
[2] = molecular target: NC3 domain of the small collagen XII subunit (190 kD) (chick); assay: two-dimensional SDS-PAGE
[3] = molecular target: collagen XII, small variant (small subunit, 220 kD) (chick); assay: electron microscopy
[4] = molecular target: collagen XII, small variant (small subunit, 220 kD) (chick); assay: electron microscopy + nonreducing SDS-PAGE

collagen I from rat tail (rat), sequence (P02454 152-1207, chain 1 of 2): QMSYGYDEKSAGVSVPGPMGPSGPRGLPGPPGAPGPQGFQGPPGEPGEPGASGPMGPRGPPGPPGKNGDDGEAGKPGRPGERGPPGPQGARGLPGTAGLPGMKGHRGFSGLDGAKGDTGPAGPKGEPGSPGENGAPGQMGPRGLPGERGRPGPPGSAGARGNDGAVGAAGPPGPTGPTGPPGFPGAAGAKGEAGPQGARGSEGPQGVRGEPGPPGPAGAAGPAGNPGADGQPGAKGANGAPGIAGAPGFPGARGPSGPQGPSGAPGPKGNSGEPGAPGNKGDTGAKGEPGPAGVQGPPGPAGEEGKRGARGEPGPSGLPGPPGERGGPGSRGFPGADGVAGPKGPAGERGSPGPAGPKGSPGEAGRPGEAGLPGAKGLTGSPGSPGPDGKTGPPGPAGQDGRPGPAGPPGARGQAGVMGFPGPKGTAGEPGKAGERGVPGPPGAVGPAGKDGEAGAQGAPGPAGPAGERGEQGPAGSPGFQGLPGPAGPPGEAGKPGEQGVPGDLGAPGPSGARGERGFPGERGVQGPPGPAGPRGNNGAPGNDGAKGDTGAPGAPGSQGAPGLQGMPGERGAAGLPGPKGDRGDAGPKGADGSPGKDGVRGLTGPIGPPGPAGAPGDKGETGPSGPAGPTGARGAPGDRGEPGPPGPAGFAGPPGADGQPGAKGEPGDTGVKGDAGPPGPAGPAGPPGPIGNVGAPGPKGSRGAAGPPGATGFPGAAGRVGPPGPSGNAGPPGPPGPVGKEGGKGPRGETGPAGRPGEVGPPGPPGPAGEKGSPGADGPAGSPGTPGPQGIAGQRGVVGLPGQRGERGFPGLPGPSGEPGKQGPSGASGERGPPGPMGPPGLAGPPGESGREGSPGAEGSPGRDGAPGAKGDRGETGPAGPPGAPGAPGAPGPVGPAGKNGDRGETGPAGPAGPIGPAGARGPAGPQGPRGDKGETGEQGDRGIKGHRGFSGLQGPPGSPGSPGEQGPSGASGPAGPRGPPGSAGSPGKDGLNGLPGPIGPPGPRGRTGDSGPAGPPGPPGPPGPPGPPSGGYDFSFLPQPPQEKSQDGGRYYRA
collagen I from rat tail (rat), sequence (P02466 86-1125, chain 2 of 2, further chain): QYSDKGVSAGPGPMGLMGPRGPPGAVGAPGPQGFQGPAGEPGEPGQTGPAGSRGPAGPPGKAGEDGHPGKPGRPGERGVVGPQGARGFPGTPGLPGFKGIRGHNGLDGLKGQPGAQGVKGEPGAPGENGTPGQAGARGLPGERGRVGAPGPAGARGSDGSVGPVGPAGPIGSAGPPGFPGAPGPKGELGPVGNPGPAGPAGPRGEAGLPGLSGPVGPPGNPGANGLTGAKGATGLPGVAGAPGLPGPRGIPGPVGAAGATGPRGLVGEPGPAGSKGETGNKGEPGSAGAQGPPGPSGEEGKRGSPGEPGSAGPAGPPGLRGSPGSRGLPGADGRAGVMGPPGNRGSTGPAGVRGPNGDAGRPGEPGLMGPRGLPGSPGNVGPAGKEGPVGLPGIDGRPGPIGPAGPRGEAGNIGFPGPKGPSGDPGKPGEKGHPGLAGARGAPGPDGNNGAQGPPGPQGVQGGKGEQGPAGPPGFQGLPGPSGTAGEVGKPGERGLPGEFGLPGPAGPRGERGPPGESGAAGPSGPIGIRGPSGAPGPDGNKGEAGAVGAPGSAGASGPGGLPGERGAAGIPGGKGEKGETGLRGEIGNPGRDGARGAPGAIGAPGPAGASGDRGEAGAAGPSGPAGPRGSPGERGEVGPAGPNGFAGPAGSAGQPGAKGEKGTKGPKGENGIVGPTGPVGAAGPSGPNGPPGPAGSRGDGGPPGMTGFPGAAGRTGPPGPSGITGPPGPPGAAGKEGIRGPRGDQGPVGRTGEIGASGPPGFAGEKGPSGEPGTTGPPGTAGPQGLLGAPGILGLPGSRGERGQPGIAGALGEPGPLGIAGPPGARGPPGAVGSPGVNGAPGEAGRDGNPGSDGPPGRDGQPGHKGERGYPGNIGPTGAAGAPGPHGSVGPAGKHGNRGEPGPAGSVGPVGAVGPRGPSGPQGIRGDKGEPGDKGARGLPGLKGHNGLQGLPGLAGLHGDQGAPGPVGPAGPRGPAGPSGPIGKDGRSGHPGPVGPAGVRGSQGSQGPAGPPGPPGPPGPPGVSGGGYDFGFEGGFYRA

NC3 domain of the large collagen XII subunit (290 kD), collagenase-treated collagen XII (domain or fragment)
percent of truncated collagen XII in the pellet (90 mM NaCl, 30 mM phosphate) [1]: 20%

NC3 domain of the small collagen XII subunit (190 kD) (domain or fragment)
stoichiometry N [2]: 3

collagen XII, small variant (small subunit, 220 kD) (natural protein)
stoichiometry N [3]: 3 | stoichiometry N [4]: 3
